According to the supplement of paper PMC10567573:
± gives the standard deviation.

Assay: protein stability index of a GFP-peptide fusion (GPS, HEK-293T) (PSI 1-6); higher = more stable
[1] = treatment: DMSO, c terminus: a fixed tail appended
[2] = treatment: MLN4924 1 uM, 8 h, c terminus: a fixed tail appended
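Note: 24-mer peptide tiles fused after GFP, lentivirally expressed, FACS-sorted into six equal bins by GFP/DsRed ratio, decoded by Illumina sequencing, PSI is the read-weighted mean bin number.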

Row | Sequence | protein stability index [1] | protein stability index [2] | protein stability index (treatment: DMSO, c terminus: native) | protein stability index (treatment: MLN4924 1 uM, 8 h, c terminus: native)
1 | VNFMYLQSLLQPKSSSVDSELTSL [SMG5] | 2.21 ± 0.39 | 2.15 ± 0.39 | – | –
2 | ESYFTTRTYGEPESAGPSRAVRQS [EMD] | 4.62 ± 0.26 | 4.57 ± 0.18 | – | –
3 | WEKVGSGGFGQVYKVRHVHWKTWL [RIPK4] | – | 2.24 ± 0.21 | – | –
4 | EEPVPRERDRDPCGGSGGGGGGGG [LURAP1L] | 5.69 ± 0.29 | 5.67 ± 0.22 | – | –
5 | QENYLEYRQVPGSDPARYEFLWGP [MAGEA10] | 3.28 ± 0.27 | 3.54 ± 0.32 | – | –
6 | ELVKSGVLGADGVCMTFMKQIAGG [INTS3] | 2.27 ± 0.52 | 2.49 ± 0.068 | – | –
7 | VKLWKVSERDKRPEGYNLKDEEGR [PPP2R2B] | 4.07 ± 0.5 | 4.336 ± 0.038 | – | –
8 | SKLLLSGTADGADLRTVDPETQAR [ANKRD17] | 5.08 ± 0.35 | 5.13 ± 0.26 | – | –
9 | GSEAAVIPLDLGCTQVTQDGDIPN [FAM189A2] | 5.05 ± 0.39 | 5.26 ± 0.5 | – | –
10 | DSVLERWVNDPQRMDKRTLALLVL [GOLPH3L] | 2.21 ± 0.28 | 2.31 ± 0.28 | – | –
11 | HKKTTHKLNCDPSRIYKPQTRLKR [DFFB] | 4.07 ± 0.28 | 4.22 ± 0.25 | – | –
12 | LTLKVLRSSSCGDTELLGQATLPV [C2CD2L] | 2.16 ± 0.73 | 2.33 ± 0.34 | – | –
13 | NQKLFDLRGKFKRPPLRRVRMSAD [TNNI2] | 3.17 ± 0.21 | 3.51 ± 0.26 | – | –
14 | GRTLIGFLRSIDQFANLVLHQTVE [LSM1] | 3.37 ± 0.64 | 2.75 ± 0.5 | – | –
15 | HFQPNSPASDLEAALEAAGEGLNV [NANOGP8] | 5.05 ± 0.26 | 5.24 ± 0.28 | – | –
16 | ETILHFFVQILLALHHVHTHLILH [NEK8] | 3.19 ± 0.44 | 3.31 ± 0.29 | – | –
17 | CCEVETIRRAYPDANLLNDRVLRA [CCND1] | 2.86 ± 0.42 | 2.95 ± 0.23 | – | –
18 | SPFSPGLFHRLDEDWDSALFAELG [ATF6] | 2.6 ± 0.28 | 2.44 ± 0.16 | – | –
19 | ARMLREYQELMSLKLALDMEIATY [KRT71] | 2.19 ± 0.62 | 2.44 ± 0.21 | – | –
20 | EAEEEKGEKEEEDKDDEEKPKIED [HSP90AB1] | 5.55 ± 0.35 | 5.6 ± 0.38 | – | –
21 | TSEGTTLSGVDLELVGSGYRMSLV [FCHO1] | 2.14 ± 0.48 | 2.29 ± 0.29 | – | –
22 | SEWQRKLEAAEALLTLRNSAQAPP [DMRTC1] | 4.45 ± 0.55 | 4.63 ± 0.26 | – | –
23 | FRPGHLLANACLPVRTTNKISKQF [ZSWIM9] | 2.78 ± 0.12 | 2.8 ± 0.19 | – | –

Row | Sequence | protein stability index [1] | protein stability index [2] | protein stability index (treatment: DMSO, c terminus: native) | protein stability index (treatment: MLN4924 1 uM, 8 h, c terminus: native)
24 | RQVEKRRNSGPVVEKLKQMQEFFG [MMP1] | 3.04 ± 0.57 | 3.07 ± 0.14 | – | –
25 | HEVLLCSDLVKAYQRCVSAAHKG [CHCHD6] | – | – | 2.56 ± 0.75 | 2.27 ± 0.45
26 | PDLRSLFSRAGISEAQLTDAETSK [WAS] | 5.03 ± 0.28 | 5 ± 0.27 | – | –
27 | LPGRGRVLSSWSRAFVSIQEEMAE [RHOBTB2] | 3.08 ± 0.54 | 3.25 ± 0.27 | – | –
28 | FNYELVKSWLNGFRPKDQTSVGMS [SLC25A39] | 1.95 ± 0.32 | 1.97 ± 0.3 | – | –
29 | HGQLDDLIFIFYKNGLPSPERSYV [PPEF2] | 2.88 ± 0.41 | 2.35 ± 0.44 | – | –
30 | LGLPYYETSVFDQFGIKDVFDNAI [RHOBTB1] | 2.34 ± 0.28 | 2.45 ± 0.42 | – | –
31 | SVEEQLSLISGCPNIQEAVEGAMH [CRYL1] | 4.68 ± 0.17 | 4.64 ± 0.15 | – | –
32 | KKKCLEWLLNNLMTHQNVELFKEL [GMCL1] | 2.54 ± 0.17 | 2.83 ± 0.78 | – | –
33 | SFVVLLYILDNETNFVVQVSVFIG [CLPTM1] | 3.15 ± 0.41 | 3.39 ± 0.56 | – | –
34 | ETVTVTVGPAEPTLVNFHLKRSIP [CPN1] | 3.02 ± 0.3 | 3.16 ± 0.2 | – | –
35 | EMAATPAGFAQLTHLLMGLAGGKL [HDAC6] | 2.26 ± 0.39 | 2.39 ± 0.22 | – | –
36 | TNLPKGACALLLTSVDHDRAPVVG [DLC1] | 2.97 ± 0.17 | 2.85 ± 0.3 | – | –
37 | LEEAKKMEMAKFRYILPVYGICRE [RIPK4] | 2.26 ± 0.23 | 2.33 ± 0.31 | – | –
38 | CRLDYRRPENRSFYLALYKQMSFL [TCF25] | 2.33 ± 0.6 | 2.28 ± 0.66 | – | –
39 | KILISGLEPSTPYRFLLYGLHEGK [TNXB] | 2.75 ± 0.77 | 3.54 ± 2.4 | – | –
40 | LEEGENPVPAFQSDGTDEPESKEP [SMG5] | 5.65 ± 0.24 | 5.65 ± 0.2 | – | –
41 | PDDRLTCSQLLESSYFDSFQEAQI [CDKL4] | 3.91 ± 0.43 | 4.08 ± 0.12 | – | –
42 | GVCYSESQSSASQPRLSYAEMAED [CLCN6] | 5.11 ± 0.23 | 5.28 ± 0.31 | – | –
43 | EEAAFPGRRVNAKMPVYSGSRPAC [ELOA2] | 4.01 ± 0.093 | 3.98 ± 0.27 | – | –
44 | VVKYRRPMDVYETGIEYIVAQGPT [ADAMTSL2] | 2.13 ± 0.5 | 2.25 ± 0.46 | – | –
45 | GGLLTGNEKITMQNLNDRLASYLE [KRT13] | 3.19 ± 0.15 | 3.24 ± 0.13 | – | –
46 | GCLKMNPDDRLTCSQLLESSYFDS [CDKL4] | 3.4 ± 0.45 | 3.54 ± 0.21 | – | –

Row | Sequence | protein stability index [1] | protein stability index [2] | protein stability index (treatment: DMSO, c terminus: native) | protein stability index (treatment: MLN4924 1 uM, 8 h, c terminus: native)
47 | KAEELDRRERELQHAALGGTATRQ [SCAMP3] | 5.15 ± 0.12 | 5.21 ± 0.22 | – | –
48 | QDFAKDLLKTLYNSIKNEKLEWAI [PSD2] | 2.32 ± 0.47 | 2.23 ± 0.25 | – | –
49 | NSAAHLFGYRPYDKNISPRENILV [SCD] | 2.22 ± 0.38 | 2.57 ± 0.26 | – | –
50 | PEQVQNEIKSMKKRMSELCIDFNK [NLN] | 4.11 ± 0.44 | 4.23 ± 0.52 | – | –
51 | QAQGQLRELLDRAMREAIQSYPSQ [SOAT2] | 3.01 ± 0.31 | 3.11 ± 0.31 | – | –
52 | GDKYEHHSYMGMRGFCAFLGSWLV [POMT2] | 2.23 ± 0.57 | 1.73 ± 0.29 | – | –
53 | ESQSTSLRGSYNSLHDGSDGLDGI [LURAP1L] | 4.91 ± 0.11 | 4.68 ± 0.17 | – | –
54 | QIGFSVGLGNIWRFPYLCQKNGGG [SLC6A17] | 2.02 ± 0.37 | 1.9 ± 0.33 | – | –
55 | LVVIQQPSLDSRQRLDYEREIQPT [SPRY1] | 2.96 ± 0.2 | 3.1 ± 0.11 | – | –
56 | FWLQNSSPSSDRVSAIIWEGNECK [PHTF1] | 2.41 ± 0.32 | 3.07 ± 0.4 | – | –
57 | EHRRTARRTPPGQQRPHPRSHSRE [ELOA2] | 5.47 ± 0.14 | 5.32 ± 0.39 | – | –
58 | HSLERAGSKQYSAAIAFTLALFSH [SMG5] | 2.48 ± 0.41 | 2.49 ± 0.44 | – | –
59 | WNPDARYSEHFLQEAKLLHWNGRH [GLT8D2] | 2.81 ± 0.21 | 2.67 ± 0.27 | – | –
60 | PNSTKNQSLPKASPVTTSPTAATT [LCOR] | 4.91 ± 0.23 | 5.03 ± 0.26 | – | –
61 | VTSYCRSATLVGFTVGSVLGQILV [SLC19A2] | 3.5 ± 0.39 | 2.84 ± 0.6 | – | –
62 | IKELYENFCKHNGSKNVFSTFRTP [ATL3] | 2.24 ± 0.36 | 2.29 ± 0.39 | – | –
63 | QEYNIPGVIQSVIGWKTVRMYPFQ [CDS2] | 2.45 ± 0.67 | 2.42 ± 0.3 | – | –
64 | IDEYCVQQLKEFDGKSLVSVTKEG [HSP90AB1] | 5.19 ± 0.25 | 4.99 ± 0.14 | – | –
65 | PPRGPLGQGAMFRLPTDSHFPYDL [NEUROD6] | 3.46 ± 0.18 | 3.59 ± 0.38 | – | –
66 | SPEVLRKDPYGKPVDLWACGVILY [CAMK2A] | 2.67 ± 0.56 | 2.49 ± 0.49 | – | –
67 | DMWSIGVITYILLSGASPFLGETK [DAPK3] | 3.15 ± 0.3 | 2.97 ± 0.36 | – | –
68 | GDSFSHSSNRIRHLRTHTGERPYK [ZNF263] | 4.28 ± 0.14 | 4.62 ± 0.16 | – | –
69 | LAMLNAVTEDLRLKDWEHSIALRN [SCARA5] | 2.86 ± 0.17 | 2.93 ± 0.16 | – | –

Row | Sequence | protein stability index [1] | protein stability index [2] | protein stability index (treatment: DMSO, c terminus: native) | protein stability index (treatment: MLN4924 1 uM, 8 h, c terminus: native)
70 | SIIECDMNVDFDAPLGYKEPERQV [UFD1] | 4.27 ± 0.22 | 4.31 ± 0.18 | – | –
71 | KDLDGMDADILGLKKSNSAPSKKA [FBF1] | 5.03 ± 0.22 | 5 ± 0.18 | – | –
72 | ARFGSGPCKTRDDEPVCGRPLGIR [APMAP] | 3.75 ± 0.28 | 3.87 ± 0.35 | – | –
73 | STCFTELQRDFLKQRPTKLKSLIR [OAS1] | 2.6 ± 0.17 | 2.66 ± 0.14 | – | –
74 | TGREMHGKNWSKLCKDCQVIDGRN [TPPP] | 3.14 ± 0.16 | 3.49 ± 0.11 | – | –
75 | TMARIRRVYVSGLMKGGADLFVEN [APMAP] | 2.2 ± 0.3 | 2.07 ± 0.25 | – | –
76 | LGPAFRGLKGRTLYPAVSAVWGQC [SPSB2] | 2.17 ± 0.22 | 2.16 ± 0.18 | – | –
77 | AADRHINFCKEQAARISNKGKFST [ZC2HC1A] | 2.57 ± 0.28 | 2.85 ± 0.14 | – | –
78 | CVNGDVDKPSEPASEEGSESEGSE [SMG5] | 5.58 ± 0.23 | 5.51 ± 0.14 | – | –
79 | FSSLNHIVEKRVLAHLAPLFDNPK [INTS3] | 2.27 ± 0.18 | 2.4 ± 0.44 | – | –
80 | TEAGGVLMDVTGGPFDLMSRRVIA [IMPA1] | 3.22 ± 0.61 | 3.37 ± 0.42 | – | –
81 | MLGLALGGLVVSAASLAGCLGALC [TSPAN10] | 3.15 ± 0.55 | 3.04 ± 0.37 | – | –
82 | LKSQPLPLRSSLPISLQATPATPA [TFE3] | 3.92 ± 0.14 | 4 ± 0.26 | – | –
83 | PELPEGHLEDWLEKRAKRLSSAPS [ZMAT5] | 4.32 ± 0.12 | 5.14 ± 0.14 | – | –
84 | WADAAGEAVPEGPDGGGPWLEDEP [ZSWIM9] | 5.62 ± 0.34 | 5.26 ± 0.47 | – | –
85 | KEKTAKHFFALKVMSIPDVIRLKQ [PRKX] | 2.44 ± 0.23 | 2.22 ± 0.2 | – | –
86 | SAIQALRSSVSRVFDCLKDGMRNK [MED27] | 2.7 ± 0.33 | 2.49 ± 0.28 | – | –
87 | VCMTFMKQIAGGDVTAKNIWLAES [INTS3] | 2.53 ± 0.62 | 2.92 ± 0.6 | – | –
88 | LPPDMTVVPGDHLLEPEVADGGGA [KCNA3] | 5.35 ± 0.39 | 5.42 ± 0.096 | – | –
89 | QHHEALSLFCYEDQEAVCLICAIS [TRIM39] | 2.26 ± 0.23 | 2.35 ± 0.18 | – | –
